Five molecules from patent US20250263490A1 (VIB VZW, published 2025) can be followed below.

Test [1] addresses human cation-independent mannose-6-phosphate receptor, native, on cells (human, UniProt P11717 41-2491). Description: cell-based or functional assay.
The target in test [2] is T1, recombinant human domain 1-3His6 of the cation-independent mannose-6-phosphate receptor (human, UniProt P11717 41-467).
T1 construct: Biotinylated (NHS-PEG4-biotin) for BLI; Glycosylated; also called hDom1-3His6; hCI-M6PRD1-D3
Put plainly: BLI exp 2, dissoc pH 6.5.

Test [3] addresses T1, recombinant human domain 1-3His6 of the …. Description: ELISA on coated antigen (100 ng), anti-VHH-HRP, A450. How it is done:
(§1) To determine the effect of site-directed mutations, an ELISA was performed. To this end, 100 ng of each successfully purified mutant was coated per well on Nunc Maxisorp plates in 50 mM MES, 150 mM NaCl, pH 6.5 buffer overnight at 4° C. […] Coating-only controls were included for background correction. […] Reactions were stopped after five minutes using a 2N H₂SO₄ solution and plates were read at 450 nm, with a 655 nm background correction. Data were analyzed using the GraphPad Prism 9 software.
A general note: ELISA stands for enzyme-linked immunosorbent assay.

The target of a further test is T2, L197D.
T2 construct: also called human CI-M6PR Dom1-3His6 L197D
T2 chain: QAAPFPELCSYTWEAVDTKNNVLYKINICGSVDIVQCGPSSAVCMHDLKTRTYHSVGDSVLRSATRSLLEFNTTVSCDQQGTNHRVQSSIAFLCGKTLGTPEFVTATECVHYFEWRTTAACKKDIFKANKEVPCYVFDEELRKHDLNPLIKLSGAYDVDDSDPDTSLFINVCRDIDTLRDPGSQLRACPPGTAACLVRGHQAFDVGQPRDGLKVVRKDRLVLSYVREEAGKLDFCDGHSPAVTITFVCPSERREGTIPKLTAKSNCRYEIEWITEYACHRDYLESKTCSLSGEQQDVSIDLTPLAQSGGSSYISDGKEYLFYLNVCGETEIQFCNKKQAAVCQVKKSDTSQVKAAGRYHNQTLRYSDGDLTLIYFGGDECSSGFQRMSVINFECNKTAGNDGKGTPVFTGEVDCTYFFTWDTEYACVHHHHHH
The test is described as above. How it is done: as §1

Another test has as its target T3, D409F.
T3 construct: also called human CI-M6PR Dom1-3His6 D409F
T3 chain: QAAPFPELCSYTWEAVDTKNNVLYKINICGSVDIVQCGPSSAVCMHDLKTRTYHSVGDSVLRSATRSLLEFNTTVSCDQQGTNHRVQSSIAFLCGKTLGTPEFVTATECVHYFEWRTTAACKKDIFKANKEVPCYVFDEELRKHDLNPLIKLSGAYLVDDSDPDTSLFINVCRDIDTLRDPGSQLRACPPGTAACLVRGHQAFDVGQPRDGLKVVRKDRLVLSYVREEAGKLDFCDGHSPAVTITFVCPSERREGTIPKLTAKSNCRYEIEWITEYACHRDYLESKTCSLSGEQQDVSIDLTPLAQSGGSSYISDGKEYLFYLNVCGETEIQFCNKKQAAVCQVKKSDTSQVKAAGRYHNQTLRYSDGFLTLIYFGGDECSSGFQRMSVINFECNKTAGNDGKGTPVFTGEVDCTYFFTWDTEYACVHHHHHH
The test is described as above. How it is done:
as §1

Another test has as its target T4, E433R.
T4 construct: also called human CI-M6PR Dom1-3His6 E433R
T4 chain: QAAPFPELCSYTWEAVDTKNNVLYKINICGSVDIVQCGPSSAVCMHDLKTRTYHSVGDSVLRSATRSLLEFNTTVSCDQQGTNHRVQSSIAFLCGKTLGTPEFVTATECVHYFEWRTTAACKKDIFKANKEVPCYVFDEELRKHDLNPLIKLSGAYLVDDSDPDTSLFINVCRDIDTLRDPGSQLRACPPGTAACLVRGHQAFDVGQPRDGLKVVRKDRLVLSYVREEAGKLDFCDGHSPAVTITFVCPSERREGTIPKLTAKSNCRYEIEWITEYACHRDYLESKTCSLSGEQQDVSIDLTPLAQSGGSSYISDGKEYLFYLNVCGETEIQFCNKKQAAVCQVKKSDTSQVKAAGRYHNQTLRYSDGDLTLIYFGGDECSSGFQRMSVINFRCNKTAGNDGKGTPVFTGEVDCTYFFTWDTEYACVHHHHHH
The test is described as above. How it is done:
as §1

The target of another test is T5, E148R.
T5 construct: also called human CI-M6PR Dom1-3His6 E148F
T5 chain: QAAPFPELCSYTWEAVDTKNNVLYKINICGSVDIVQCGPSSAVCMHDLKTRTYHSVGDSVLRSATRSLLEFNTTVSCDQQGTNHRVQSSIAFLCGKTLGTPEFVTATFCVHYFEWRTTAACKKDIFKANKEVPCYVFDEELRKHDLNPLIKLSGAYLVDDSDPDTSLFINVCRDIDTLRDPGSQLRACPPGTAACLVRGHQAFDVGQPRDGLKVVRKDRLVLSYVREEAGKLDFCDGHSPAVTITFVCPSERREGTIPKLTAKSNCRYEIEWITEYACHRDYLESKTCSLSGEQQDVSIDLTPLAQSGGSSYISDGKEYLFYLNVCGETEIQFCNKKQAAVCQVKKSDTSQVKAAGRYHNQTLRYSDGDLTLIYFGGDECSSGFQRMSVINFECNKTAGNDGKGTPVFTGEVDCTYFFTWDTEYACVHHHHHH
Description: ELISA on coated antigen (100 ng; labelled E148R on the sheet, E148F in the text), anti-VHH-HRP, A450. How it is done:
as §1

One may read the koff as a measure of how fast the partners let go of each other. What is called kon is the second-order rate constant of association. By EC50 (read off the curve) is commonly meant the midpoint of the concentration-response curve.

B1: anti-CI-M6PR VHH7 (VHH)
VHH: QVQLQESGGGLVQPGGSLRLSCAASGIIFSDNRMDWYRQAPGKQREWVATLASYGWKTYADSVKGRFTISRDNTKNTVYLRMNSLKPEDTAVYYCKASSPVLNDIWGQGTQVTVSS
notes: His6-tagged (Pichia pastoris)
For B1, in test [1], the “internalisation rate (live-cell imaging of AF488-VHH on MCF7 cells)” value (“internalisation rate” below) is 1.26e+06 summed AF-voxels/minute. In addition, in test [2], the off-rate (koff) was 0.02 s⁻¹ and the kon turned out to be 430000 M⁻¹ s⁻¹. Besides, the “EC50 (read off the curve)” value in test [3] was roughly 0.3 nM.

B2: anti-CI-M6PR VHH5 (VHH)
VHH: QVQLQESGGGLVQAGGSLKLSCAAAGRTFSRLAMGWFRQAPGKEREFVAAISENGDSIHYSDSVKGRFAVSRDNAKNTVYLQMNSLKPEDTAIYYCAADRAAYYCSGSGCYPSRAPAAASYDYWGQGTQVTVSS
notes: His6-tagged; made in Pichia pastoris, later also in E. coli WK6
As to B2, the “internalisation rate” value in test [1] is 687000 summed AF-voxels/minute. Also, the “EC50 (read off the curve)” value in the test with L197D was roughly 4 nM; in the test with D409F, roughly 4 nM; with E433R it was roughly 3 nM; in test [3], roughly 2 nM; with E148R it was roughly 2 nM.

B3: anti-CI-M6PR VHH1 (VHH)
VHH: QVQLQESGGGLVQPGGSLRLSCVASGFTFDRYWMNWLRQIPGKEIEWVSTINTGGTGTYYDDSVKGRFSISRDDAKNTLYLTMNSLKTEDTAVYYCARGATYYRGNSAIRGQGTQVTVSS
notes: as for B2
On to B3, for which, in test [1], the “internalisation rate” value stood at 1.38e+06 summed AF-voxels/minute. Moreover, in test [2], the koff came to 0.011 s⁻¹ and the kon is 1.1e+06 M⁻¹ s⁻¹. Moreover, the concentration for a half-maximal effect (EC50 (read off the curve)) in test [3] was roughly 10 nM.

B4: anti-CI-M6PR VHH8 (VHH)
VHH: QVQLQESGGGLVQAGGSLRLSCEASGRTFNTYNWGWFRQAPGKEREFVAAIRWSSSKTSYADSVKGRFTISRDNAKNTIYLQMNSLKPEDTAVYYCAASIVDFTTNPSHFGSWGQGTQVTVSS
notes: His6-tagged (Pichia pastoris)
Regarding B4, in test [1], the “internalisation rate” value is 673000 summed AF-voxels/minute. Besides, the off-rate constant (koff) in test [2] worked out at 0.0007 s⁻¹. The kon in test [2] was 1.2e+06 M⁻¹ s⁻¹. Besides, the concentration giving a half-maximal response (EC50 (read off the curve)) in the test with L197D is roughly 20 nM; with D409F, roughly 5 nM; with E433R, roughly 3 nM; in test [3], roughly 3 nM; in the test with E148R, roughly 3 nM.

B5: anti-CI-M6PR VHH 1H11 (VHH)
VHH: QVQLQESGGGLVQPGGSLRLSCAASGIIFSDNRMDWYRQAPGKQREWVATLASYGWKTYADSVKDRFTISRDNAKNTVNLYMNSLQPEDTAVYYCNSGQYWGQGTQVTVSS
notes: made in E. coli WK6, His-tag purified
B5: the “EC50 (read off the curve)” value with L197D is roughly 0.4 nM; with D409F, roughly 0.4 nM; in the test with E433R it was roughly 0.4 nM; in test [3] it was roughly 0.4 nM; with E148R, roughly 9 nM.
